# Data from article PMC3572911 (Biochemistry, 2013).
# Biological target: the molecule itself
# Test: crystal structure
protein,measurement,value
"human liver pyruvate kinase (L-PYK) with the S12D mimic of phosphorylation (enzyme, Cys436 partially oxidized to the sulfenic derivative (sulfenic acid)) not shown",stoichiometry N,4
